According to US8591908B2, “Immunogen for preparation of therapeutic vaccines or drugs for treatment of hepatitis B and the producing method and use thereof” (Institute of Immunology, PLA, priority 2002, dated 2013):
Ends that are not written are not given here. * marks the point of attachment. linolenoyl = CH3CH2CH=CHCH2CH=CH(CH2)CH=CH(CH2)7CO, CC/C=C\C/C=C\C/C=C\CCCCCCCC(=O)*; Palmitoyl = CCCCCCCCCCCCCCCC(=O)*

What was measured:
[1] = Encapsulation rate of liposome (RP-HPLC); assay type: physicochemical; settings: L9(3^4) orthogonal test of lipid components and liposome forming conditions; 6 mmol/L vitamin E
Experimental: Liposome was prepared by a double emulsion method. The lipid components were dissolved in ethyl ether solution, mixed with the concentrate of the present compound to form an emulsion (W/O), then poured into phosphate buffer (PB) or water under a controlled temperature and stirred to form a further emulsion (W/O/W), and liposome was gradually formed as ethyl ether gradually volatilized. The product in free form and aggregate and precipitate in the liquid was removed by concentration in ultrafiltration apparatus and dialysis (the dialysis must be 200 folds or higher) and by filtration via a 10 μm microporous filter. Aliquots were removed for reversed phase high performance liquid chromatography (RP-HPLC) to determine the encapsulation amount, and the encapsulation rate was calculated by comparing to the incorporated amount. L9(3^4) orthogonal table was used in the experimental design.
Based on the formulation and conditions determined by said orthogonal test, the effects of the concentration of the immunogen solution on the encapsulation rate of the liposome were compared. […]

[2] = Size shrinkage of liposome after lyophilization; assay type: physicochemical; settings: 5% mannitol/10 mmol/L phosphate buffer
Description: In the Table 16, all of the formulations 1-11 contained a buffer of 5% mannitol/10 mmol/L phosphate(KH2PO4/Na2HPO4 was 60/40)
When the addition amount of the concentrated liposome solution was 25-50% (v/v) of the semifinished product liquor for subpackage, addition of 1% human serum albumin as excipient will result in better lyophilization effects. Thus, when the volume of the concentrated liposome solution was equal to the volume of the emulsion (W/O), the volume of the concentrated liposome solution was determined as 37.5% (v/v) of the volume of the product liquor for subpackage, i.e., an average level of the amount of the concentrated liposome solution. In this case, the concentrations of the adjuvants in the product liquor for subpackage should meet the requirements as set forth in Table 16-4. The volume of subpackage should be 1 ml and meet the requirements for the formulation of lyophilized liposome injection. In practice, the volume of the concentrated liposome solution usually is greater than the volume of emulsion (W/O), so the volume of the product liquor for subpackage may be increased. Thus, the actual subpackage volume is calculated according to the following formula.

HBV-DNA transgenic mice [3] = assay: HBV transgenic mice: cytokines of spleen lymphocytes, ELISA (Th1/Th2); assay type: in vivo; settings: 10, 100, 1000 U/mouse s.c., day 30; spleen lymphocytes restimulated with 10 ng/ml for 3 days
Experimental: (§1) The levels of cytokines such as IFN-γ, IL-4, etc. in supernatant were measured by the ELISA method, and the activity of the test drug (CH3(CH2)14COKSSQYIKANSKFIGITEAAASIVSPFIPLLGGGDPRVRGLYFPA) (SEQ ID NO:5) for inducing the differentiation of T cells into Th1/Th2 type was analyzed. […] The expression frequency of IFN-γ secreting cells in peripheral blood lymphocytes was measured by the ELI-SPOT method in said supernatant. […] On the 10th, 20th and 30th day after the end of the three immunizations, bloods were removed, serum isolated, and the contents of HBsAg and HBV-DNA in the serum were separately measured by the ELISA method and quantitative PCR method.
Then supernatants were collected and the secretion levels of cytokines such as TNF-α, IFN-γ, IL-4, etc. in supernatants were measured by ELISA, and the activity of the test drug for inducing the conversion of Th1/Th2 type from T cells in subjects was analyzed.

HBV-DNA transgenic mice [4] = assay: HBV transgenic mice: IFN-γ secreting cells, ELI-SPOT; assay type: in vivo; settings: 30th day after end of immunization
Experimental: as §1
The expression frequency of IFN-γ secreting cells in peripheral blood lymphocytes was measured by the ELI-SPOT method.

[5] = tested on: HBV DNA in HBV transgenic mice; assay: HBV transgenic mice: HBV DNA in serum, quantitative PCR; assay type: in vivo; settings: 10th, 20th, 30th day after three immunizations, 10-1000 U/mouse
Experimental: as §1

[6] = tested on: hepatitis B surface antigen (HBsAg) in HBV transgenic mice; assay: HBV transgenic mice: HBsAg in serum, ELISA; assay type: in vivo; settings: 10th, 20th, 30th day after three immunizations, 10-1000 U/mouse
Experimental: as §1

[7] = tested on: T2 cells, E6 cells and HepG2.2.15 cells; assay: HBV-specific CTL from human PBMCs, 51Cr release cytotoxicity test; assay type: cell-based
Experimental: Human PBMCs were divided into groups and cultured in RPMI1640 culture media (containing 10% calf serum, and 100μ/ml penicillin-streptomycin) (10^6/ml, 24-well culture plates) in vitro for one day. After they recovered the original growth state, IL-2(30-IU/ml) and test drug (0.1 μg/ml, 1 μg/ml) were separately added. […] 3 days after the last stimulation, antigen-specific effective CTL cells were obtained. Cytotoxicity was tested by standard ^51Cr release tests and compared. Target cells (T2 cells and HepG2.2.1.5 cells pre-coated with peptide) were grown to a good state. 10 hours before the cells were used, 10 μg/ml test drug was added to the culture, and the cells were incubated. 10^6 Target cells were placed in 1 ml RPMI1640 media (containing 20% calf serum), and 100 μCi ^51Cr (NEN) was added for labelling in water-bath at 37° C. for 2 hours. The labelled target cells were washed with sterilized PBS buffer for 3 times under centrifugation (500 rpm/5 min), and were plated on 96-well V-bottom culture plates in an amount of 10^4 target cells/50 μl/well, each well was treated in triplicate. […] The minimum release value was 30% lower than the maximum release value. The formula for calculating ^51Cr release percentage was: [(CPMsample−CPMminimum release)/(CPMmaximum release−CMPminimum release)]×100%.

[8] = tested on: peripheral blood mononuclear lymphocytes of HLA-A2+ healthy person; settings: culture supernatant, 24 h after last stimulation
enzyme-labeled antibody = assay: Potency/specific activity of stock solution or semifinished product, enzyme-linked plate; assay type: binding; settings: stock solution after reversed phase chromatography; batches 1-3 and x ± Sx
Description: Chromatography column AP5 20/275 POROS 50 R1 was used in the batch production. After peptide-resin was cleaved and preliminarily purified, the collected εPA44 sample was divided into 7 parts for high purification, and the effects and reproducibility for batch purification of εPA44 stock solution were furthered studied. […] The collected elution peak fractions of εPA44 were pooled and mixed homogenously, aliquots were removed for analysis. If the sample met the set standards, it was used as the stock solution and was stored at −20° C. until use. The output, yield and specific activity of the product were calculated based on the measured data.
The semifinished product to be tested was diluted to a concentration within the measurable range of the potency determination. An enzyme-linked plate( ? ) was coated, blocked, bound by enzyme-labeled antibody, and developed. The absorbance at 450 nm (A450 nm) was detected by an enzyme-labeling device, and compared to the reference of the product. The potency of εPA44 in the extract of the sample was determined, and the specific activity of the semifinished product ( ? ) was calculated.
The reference of the product was 10-fold diluted with 50% ethanol, and then was two-fold serially diluted. 100 μl dilutions were separately added to the wells on the 96-well enzyme-linket immunosorbent assay plate, each well was repeated in triplicate. Coating was carried out in refrigerator at 4° C. for 20-24 hours. The stock solution of εPA44 was diluted and coated similarly to the reference. 100 μl of 50% ethanol was added to negative control wells. After the coating was completed, 200 μl 1% calf serum was added to each well, and blocked in refrigerator at 4° C. for 2 hours. The enzyme-linket immunosorbent assay plate was dried in air, 80 μl enzyme-labeled antibody was added to each well and incubated at 37° C. for 40 minutes. The plate was washed with wash solution for 4 times and dried in air, then 50 μl of substrate solution A and 50 μl of substrate solution B were added to each well and developed at 37° C. for 15 minutes under protection from light. Then 50 μl of stop solution was added to each well. A450 nm values were detected on 550 type enzyme-linket immunosorbent assay detector. The median dilution times of the reference and the samples were calculated by program or linear regression method based on the median effect value of the reference of εPA44 (median maximum absorbance), and the potency of the test sample and the specific activity of the product were calculated according to the following formulas.

HBV-DNA, HBeAg and HBsAg = assay: FIG. 5: virus inhibition test with PBMC of HBV carrier and hepatitis patients; assay type: cell-based, hepatitis B virus; settings: supernatant, with increase of co-culture time
Description: FIG. 5 indicated the antiviral effects of the immunogen of the present invention. Peripheral blood mononuclear lymphocytes were separately isolated from fresh peripheral bloods of a HLA-A2+HBV carrier, a patient suffering from acute hepatitis, and a patient suffering from chronic hepatitis, and were subjected to virus inhibition tests to measure the copy numbers of HBV-DNA (A) and secretion levels of HBeAg and HBsAg in the supernatant (B, C).

With “6 (QYIKANSKFIGITE; Th cell epitope from tetanus toxoid or variant species thereof) [compound 6]” the Encapsulation rate [1] was 79.26% and the “degree of size shrinkage of the liposome after lyophilization” value (from here on “degree of size shrinkage of the liposome”) [2] was “+++”.
With “CH3(CH2)14COKSSQYIKANSKFIGITEAAASIVSPFIPLLGGGDPRVRGLYFPA (Palmitoyl-KSSQYIKANSKFIGITEAAASIVSPFIPLLGGGDPRVRGLYFPA) [SEQ ID NO:5]” the IL-4 secretion (HBV-DNA transgenic mice [3]) was “did not exhibit an obvious dose-effect dependence relation”, the “secretion of IFN-γ” value (HBV-DNA transgenic mice [3]) was “strong secretion of IFN-γ” and the “expression frequency of IFN-γ secreting cells in peripheral blood lymphocytes” value (HBV-DNA transgenic mice [4]; 10-1000 U/mouse) was “increased with the increase of immunogen dose”. For the same substance, the “highest expression frequency of IFN-γ secreting cells” value (HBV-DNA transgenic mice [4]; IFN-α2b at 15000 U/mouse) was 3660 IFN-γ secreting cells/10^6 PBMC, the “HBV-DNA in the serum (copy number, replication level)” value [5] was “obvious decrease” and the “HBsAg in the serum” value [6] was “obvious decrease”.
With “5 (Palmitoyl-KSSQYIKANSKFIGITEAAASIVSPFIPLLGGGDPRVRGLYFPA) [compound 5]” the Encapsulation rate [1] was 97.27% and the “degree of size shrinkage of the liposome” value [2] was “+++”.
In the case of “9 (MQWNSTALHQALQDP; Hepatitis B virus) [compound 9]”, the Encapsulation rate [1] is reported as 109.4% and the “degree of size shrinkage of the liposome” value [2] is reported as “+”.
With “7 (PADRE; Th cell epitope from tetanus toxoid or variant species thereof) [compound 7]” the Encapsulation rate [1] was 53.75% and the “degree of size shrinkage of the liposome” value [2] was “−”.
With “10 (SILSKTGDPV; Hepatitis B virus) [compound 10]” the “degree of size shrinkage of the liposome” value [2] was “+”.
In the case of “4 (Palmitoyl-KSSQYIKANSKFIGITEAAAFLPSDFFPSVGGGCTKPTDGNCT; cysteine pairing not given here) [compound 4]”, the Encapsulation rate [1] is reported as 69.48% and the “degree of size shrinkage of the liposome” value [2] is reported as “++”.
For “3 (KSSQYIKANSKFIGITEGGGDPRVRGLYFPA; not fully specified (N-terminus); printed as CH3CH2CH═CHCH2CH═CH(CH2)7CO7KSSQYIKANSKFIGITEGGGDPRVRGLYFPA; also: N-terminal acyl on K unclear: CH3(CH2)7CH=CH(CH2)-CO or CH3CH2CH=CHCH2CH=CH(CH2)7CO) [compound 3]”, the Encapsulation rate [1] was 44.92% and the “degree of size shrinkage of the liposome” value [2] was “+++”.
For “CH3CH2CH═CHCH2CH═CH(CH2)CH═CH(CH2)7COFLPSDFFPSVAAADPRVRGLYFPA (linolenoyl-FLPSDFFPSVAAADPRVRGLYFPA) [SEQ ID NO:54]”, the “specific killing of target cells” value [7] was “specifically kill peptide pre-coated T2 cells, E cells and HepG2.2.15 cells” and the “target cell-specific lysis rate” value ([7]; PBMCs of healthy human) was “up to 62.8%”.
For “CH3CH2CH═CHCH2CH═CH(CH2)CH═CH(CH2)7COKSSPAREGGGWLSLLVPFVSSSDP RVRGLYFPA [SEQ ID NO:2]”, the “effect of inducing the secretion of IL-4” value [8] was “not obvious” and the “secretion of IFN-γ” value [8] was “induce the secretion of IFN-γ in a notable dose-effect dependence relation”.
“CH3(CH2)14COKSSYIKANSK FIGITEAAAMQWNSTALHQALQDPGGGDPRVRGLYFPA (Palmitoyl-KSSYIKANSKFIGITEAAAMQWNSTALHQALQDPGGGDPRVRGLYFPA) [SEQ ID NO:72]” gave a Specific activity (enzyme-labeled antibody) of 11689.76±1503.57 U/mg.
For “CH3(CH2)14COKSSQYIKANSKFIGITEAAAFLPSDFFPSVGGGCTKPTDGNCT (Palmitoyl-KSSQYIKANSKFIGITEAAAFLPSDFFPSVGGGCTKPTDGNCT; cysteine pairing not given here) [SEQ ID NO:4]”, the “copy numbers of HBV-DNA” value (HBV-DNA, HBeAg and HBsAg) was “inhibited in an obvious dose-effect dependence relation”, the “secretion level of HBeAg” value (HBV-DNA, HBeAg and HBsAg) was “inhibited in an obvious dose-effect dependence relation” and the “secretion level of HBsAg” value (HBV-DNA, HBeAg and HBsAg) was “inhibited in an obvious dose-effect dependence relation”.
In the case of “8 (PLGFFPDH; Hepatitis B virus) [compound 8]”, the Encapsulation rate [1] is reported as 79.29% and the “degree of size shrinkage of the liposome” value [2] is reported as “−”.
For “1 (Palmitoyl-KSSQYIKANSKFIGITEAAAFLPSDFFPSVGGGDPRVRGLYFPA) [compound 1]”, the Encapsulation rate [1] was 93.16% and the “degree of size shrinkage of the liposome” value [2] was “++++”.
